Laboratory results reported in US20220289830A1 (STAIDSON BEIJING BIOPHARMACEUTICALS, published 2022).

Key:
[1] = target: T1, recombinant Pseudomonas aeruginosa PcrV, full-length (PAO), His-tagged (Pseudomonas aeruginosa); assay: BLI
[2] = target: T2, native PcrV on live Pseudomonas aeruginosa (strains O6-57/66, O11-PA103, O1-52/66, O16-177/81) (Pseudomonas aeruginosa); assay: cell-based or functional assay
[3] = target: T2, native PcrV on live Pseudomonas …; assay: cell-based or functional assay; remark: listed apart in the source
[4] = target: T1, recombinant Pseudomonas aeruginosa …; assay: ELISA, PcrV coated on the plate, goat anti-human Fc-AP detection
[5] = target: T2, native PcrV on live Pseudomonas …; assay: cell-based or functional assay; remark: listed apart in the source
[6] = target: T2, native PcrV on live Pseudomonas …; assay: cell-based or functional assay; remark: listed apart in the source
[7] = target: T1, recombinant Pseudomonas aeruginosa …; assay: SPR (BIACORE)

Binder | Kd [1] | RBC lysis assay IC50 (P. aeruginosa strain 57/66(O6)) [2] | A549 cytotoxicity assay IC50 (P. aeruginosa strain PA103(O11)) [3] | EC50 [4] | RBC lysis Average IC50 over the three strains [5] | RBC lysis IC50, strain O1-52/66 [5] | RBC lysis IC50, strain O6-57/66 [5] | RBC lysis IC50, strain O16-177/81 [5] | A549 cell lysis Average IC50 over the strains [6] | A549 cell lysis IC50, strain O1-52/66 [6] | A549 cell lysis IC50, strain O6-57/66 [6] | A549 cell lysis IC50, strain O11-PA103 [6] | A549 cell lysis IC50, strain O16-177/81 [6] | Kd [7]
2B1 (antibody, V domains shown, also called optimized anti-PcrV mAb clone 2B1) VH: EVQLLESGGGLVQPGGSLRLSCTASGFTFSSYPMSWVRQAPGKGLDWVSGISESGGSTNYADSVKGRFSTSRDNSKSTLYLDMNSLRAEDTAIYYCAKGRFSGESHHFFRAVYGMDVWGQGTAVTVSS VL: DIQLTQSPSSLSASVGDRVTITCRASQGISSYLAWYQQKPGKAPKLLIYAASTLQSGVPSRFSGSGSGTDFTLTISSLQPEDFATYYCQQLSSYPLSFGGGTKVEIK | 0.194 nM | 0.12 µg/mL | 3.01 µg/mL | 0.162 µg/mL |  |  |  |  |  |  |  |  |  | 
4A10 (antibody, V domains shown, also called optimized anti-PcrV mAb clone 4A10) VH: EVQLLESGGGLVQPGGSLRLSCTASGFTFSSYPMSWVRQAPGKGLDWVSGISESGGSTNYADSVKGRFSTSRDNSKSTLYLDMNSLRAEDTAIYYCAKGRFSDASEHFFRAVYGMDVWGQGTAVTVSS VL: DIQLTQSPSSLSASVGDRVTITCRASQGISSYLAWYQQKPGKTPKLLIYAASTLQSGVPSRFSGSGSGTDFTLTISSLQPEDFATYYCQQLSSYPLTFGGGTKVEIK | 0.606 nM | 0.16 µg/mL | 2.8 µg/mL | 0.113 µg/mL |  |  |  |  |  |  |  |  |  | 
13-42 mAb (antibody, V domains shown) VH: EVQLLESGGGLVQPGGSLRLSCTASGFTFSDYPMSWVRQAPGKGLDWVSGISESGGSTNDADSVKGRFSTSRDNSKSTLYLDMNSLRAEDTAIYYCAKGRFCTNSSCFFRAVYGMDVWGQGTAVTVSS VL: DIQLTQSPSSLSASVGDRVTITCRASQGISSYLAWYQQKPGKAPKLLIYAASTLQSGVPSRFSGSGSGTDFTLTISSLQPEDFATYYCQQLSSYPLSFGGGTKVEIK | 0.414 nM | 0.23 µg/mL | 2.67 µg/mL | 0.132 µg/mL | 0.355 µg/mL | 0.472 µg/mL | 0.13 µg/mL | 0.464 µg/mL | 1.38 µg/mL | 2.34 µg/mL | 0.891 µg/mL | 1.21 µg/mL | 1.08 µg/mL | 
5B3 (antibody, V domains shown, also called optimized anti-PcrV mAb clone 5B3) VH: EVQLLESGGGLVQPGGSLRLSCTASGFTFSDYPMSWVRQAPGKGLDWVSGISESGGSTNDADSVKGRFSTSRDNSKSTLYLDMNSLRAEDTAIYYCAKGRFSQDSYHFFRAVYGMDVWGQGTAVTVSS VL: DIQLTQSPSSLSASVGDRVTITCRASQGISSYLAWYQQKPGKAPKLLIYAASTLQSGVPSRFSGSGSGTDFTLTISSLQPEDFATYYCQQLSSYPLSFGGGTKVEIK | 0.455 nM | 0.12 µg/mL | 2.39 µg/mL | 0.109 µg/mL |  |  |  |  |  |  |  |  |  | 
3H10 (antibody, V domains shown, also called optimized anti-PcrV mAb clone 3H10) VH: EVQLLESGGGLVQPGGSLRLSCTASGFTFSDYPMSWVRQAPGKGLDWVSGISESGGSTNDADSVKGRFSTSRDNSKSTLYLDMNSLRAEDTAIYYCAKGRFSDYSQHFFRAVYGMDVWGQGTAVTVSS VL: DIQLTQSPSSLSASVGDRVTITCRASQGISSYLAWYQQKPGKAPKLLIYAASTLQSGVPSRFSGSGSGTDFTLTISSLQPEDFATYYCQQLNSYPLTFGGGTKVEIK | 0.779 nM | 0.16 µg/mL | 1.78 µg/mL | 0.149 µg/mL |  |  |  |  |  |  |  |  |  | 
7B1 (antibody, V domains shown, also called 7B1-IgG1; 7B1 mAb) VH: EVQLLESGGGLVQPGGSLRLSCTASGFTFSDNYMSWVRQAPGKGLDWVSVISESGGSTNYADSVKGRFSTSRDNSKSTLYLDMNSLRAEDTAIYYCAKGRFSTLSSHFFRAVYGMDVWGQGTAVTVSS VL: DIQLTQSPSSLSASVGDRVTITCRASQGISSYLAWYQQKPGKAPKLLIYAASTLQSGVPSRFSGSGSGTDFTLTISSLQPEDFATYYCQQLSSYPLTFGGGTKVEIK | < 0.001 nM | 0.1 µg/mL | 1.06 µg/mL | 0.125 µg/mL | 0.214 µg/mL | 0.308 µg/mL | 0.138 µg/mL | 0.197 µg/mL | 2.13 µg/mL | 4.56 µg/mL | 0.503 µg/mL | 2.61 µg/mL | 0.861 µg/mL | 0.0847 nM
6D10 (antibody, V domains shown, also called optimized anti-PcrV mAb clone 6D10) VH: EVQLLESGGGLVQPGGSLRLSCTASGFTFSDYPMSWVRQAPGKGLDWVSGISESGGSTNYADSVKGRFSTSRDNSKSTLYLDMNSLRAEDTAIYYCAKGRFSTDSSHFYRAVYGMDVWGQGTAVTVSS VL: DIQLTQSPSSLSASVGDRVTITCRASQGISSYLAWYQQKPGKAPKLLIYAASTLQSGVPSRFSGSGSGTDFTLTISSLQPEDFATYYCQQLSSYPLSFGGGTKVEIK |  | 0.16 µg/mL | 2.63 µg/mL |  |  |  |  |  |  |  |  |  |  | 0.052 nM
